The results in this text go back to patent US20220315967A1, “METHODS FOR PRODUCING D-TRYPTOPHAN AND SUBSTITUTED D-TRYPTOPHANS” (priority 2019, published 2022).

Data set [1] deals with T1, D-tryptophanyl-S-IvoA-ΔC(E^0).
T1 chain: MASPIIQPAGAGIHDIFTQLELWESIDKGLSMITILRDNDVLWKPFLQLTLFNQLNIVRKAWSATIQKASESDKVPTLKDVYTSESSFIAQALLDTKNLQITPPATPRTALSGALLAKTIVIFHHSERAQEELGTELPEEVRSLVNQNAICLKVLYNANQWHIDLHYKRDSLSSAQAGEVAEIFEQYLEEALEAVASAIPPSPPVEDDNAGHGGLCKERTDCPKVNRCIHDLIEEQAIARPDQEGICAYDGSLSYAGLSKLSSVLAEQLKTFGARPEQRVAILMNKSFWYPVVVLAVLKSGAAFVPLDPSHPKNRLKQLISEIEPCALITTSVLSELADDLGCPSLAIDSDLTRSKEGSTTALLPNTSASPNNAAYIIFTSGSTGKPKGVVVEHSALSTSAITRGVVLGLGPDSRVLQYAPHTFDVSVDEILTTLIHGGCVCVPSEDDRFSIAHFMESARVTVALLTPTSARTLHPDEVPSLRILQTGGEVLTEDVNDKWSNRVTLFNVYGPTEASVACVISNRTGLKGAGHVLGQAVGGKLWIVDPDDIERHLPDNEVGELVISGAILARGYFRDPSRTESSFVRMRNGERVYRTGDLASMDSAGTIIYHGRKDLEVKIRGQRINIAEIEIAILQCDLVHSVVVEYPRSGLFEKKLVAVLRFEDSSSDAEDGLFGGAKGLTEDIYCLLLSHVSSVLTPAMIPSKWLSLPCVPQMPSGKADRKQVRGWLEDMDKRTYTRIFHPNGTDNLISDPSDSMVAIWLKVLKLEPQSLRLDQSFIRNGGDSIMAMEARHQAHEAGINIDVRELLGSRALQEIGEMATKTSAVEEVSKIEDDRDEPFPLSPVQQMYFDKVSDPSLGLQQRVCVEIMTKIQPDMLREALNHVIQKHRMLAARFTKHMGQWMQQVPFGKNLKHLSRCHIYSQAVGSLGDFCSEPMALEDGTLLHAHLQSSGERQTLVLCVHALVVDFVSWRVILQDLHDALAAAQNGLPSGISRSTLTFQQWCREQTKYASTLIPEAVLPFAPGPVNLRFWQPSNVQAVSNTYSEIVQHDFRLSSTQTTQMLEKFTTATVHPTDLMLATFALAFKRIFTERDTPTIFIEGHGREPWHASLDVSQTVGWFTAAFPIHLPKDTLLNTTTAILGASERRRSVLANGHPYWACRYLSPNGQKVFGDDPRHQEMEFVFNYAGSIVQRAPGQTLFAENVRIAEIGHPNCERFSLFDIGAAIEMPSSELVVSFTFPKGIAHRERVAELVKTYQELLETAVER

Data set [2] addresses T2, L-tryptophanyl-S-IvoA-ΔC(E^0).
T2 chain: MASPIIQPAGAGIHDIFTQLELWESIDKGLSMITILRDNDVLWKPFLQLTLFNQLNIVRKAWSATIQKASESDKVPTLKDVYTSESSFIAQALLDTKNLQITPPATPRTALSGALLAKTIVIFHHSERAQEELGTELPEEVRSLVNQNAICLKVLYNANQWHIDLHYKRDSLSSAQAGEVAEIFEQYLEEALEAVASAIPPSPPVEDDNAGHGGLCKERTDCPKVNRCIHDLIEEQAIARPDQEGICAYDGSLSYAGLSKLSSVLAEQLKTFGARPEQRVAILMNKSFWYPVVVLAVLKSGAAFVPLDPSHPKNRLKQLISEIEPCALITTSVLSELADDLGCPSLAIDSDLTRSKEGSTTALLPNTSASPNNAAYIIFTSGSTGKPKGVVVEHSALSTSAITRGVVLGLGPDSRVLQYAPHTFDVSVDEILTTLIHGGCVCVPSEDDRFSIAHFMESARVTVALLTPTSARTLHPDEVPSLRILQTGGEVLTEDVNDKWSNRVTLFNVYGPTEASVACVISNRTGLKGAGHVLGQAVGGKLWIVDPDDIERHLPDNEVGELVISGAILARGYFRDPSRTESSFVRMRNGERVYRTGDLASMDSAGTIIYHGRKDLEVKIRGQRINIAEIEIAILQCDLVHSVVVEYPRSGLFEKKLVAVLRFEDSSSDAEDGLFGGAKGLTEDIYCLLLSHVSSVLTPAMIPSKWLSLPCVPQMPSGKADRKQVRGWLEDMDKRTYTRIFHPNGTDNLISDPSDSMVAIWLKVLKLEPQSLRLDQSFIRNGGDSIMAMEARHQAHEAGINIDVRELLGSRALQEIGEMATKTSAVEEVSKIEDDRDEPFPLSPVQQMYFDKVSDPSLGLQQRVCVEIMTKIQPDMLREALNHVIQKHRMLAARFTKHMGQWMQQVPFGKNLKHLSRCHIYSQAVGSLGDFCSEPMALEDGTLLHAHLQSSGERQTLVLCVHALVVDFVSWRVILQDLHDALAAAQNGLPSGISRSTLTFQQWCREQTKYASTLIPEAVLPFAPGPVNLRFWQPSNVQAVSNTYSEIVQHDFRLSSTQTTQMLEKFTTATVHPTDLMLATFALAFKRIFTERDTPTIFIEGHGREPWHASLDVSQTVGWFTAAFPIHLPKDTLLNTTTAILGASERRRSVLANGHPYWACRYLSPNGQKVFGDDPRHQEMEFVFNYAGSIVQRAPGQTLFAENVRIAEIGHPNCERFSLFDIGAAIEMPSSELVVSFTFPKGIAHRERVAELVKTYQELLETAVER

B1: standalone IvoA-C (condensation (C) domain of Aspergillus nidulans single-module NRPS IvoA) (protein)
chain: DLDLSAKLSSPLVCPADVVRSLEVNGVCIERDVEIVYTPSSIQQHMLWRQSQEPWFYRVQGDWTIEKTTTQSEPVDIDRLSHAWNQVVHRHTTLRTVFRYSSEEERFVAIVLHEVKPAISIIRKGIQTSGSLCRDDDLSPPHRMVLREKDNGSVVCELEFSHTIIDAASRSIVVQDLLDAYDGKLAHRPLDFPPFWEYIRLAQSSTPSARKEELHRAGRVVTLPFQPTHVLSKVPEACKKNEITISSFFMTAWSIVLAKHFVAHNQRVDSTSSQAVAFDYVLSDRSANIPGIESAVGPYIRLPTLETHVKEGVSLKNIARGLHAQCTFQSLSQSTQDGSSLELPSKATALQKYSTLVNIRNSGSDSLDLVSDSGEWKWILQGFSDPWDYDLVFAVNVHAGKVTGWTVEYADGVVEHSAADEIAKDLNDVVERMVCEII
Take B1: the “IvoA-C catalyzed hydrolysis of the protein-bound thioester; liberated free tryptophan quantified by LC-MS” value in data set [1] and in data set [2] was “IvoA-C stereoselectively hydrolyzed D-tryptophanyl-S-IvoA-ΔC(E^0) over L-tryptophanyl-S-IvoA-ΔC(E^0)” throughout.
